Measurements from article PMC10776498.

B1: GSDMD (gasdermin-D): S338A (protein)
parent chain: MGSAFERVVRRVVQELDHGGEFIPVTSLQSSTGFQPYCLVVRKPSSSWFWKPRYKCVNLSIKDILEPDAAEPDVQRGRSFHFYDAMDGQIQGSVELAAPGQAKIAGGAAVSDSSSTSMNVYSLSVDPNTWQTLLHERHLRQPEHKVLQQLRSRGDNVYVVTEVLQTQKEVEVTRTHKREGSGRFSLPGATCLQGEGQGHLSQKKTVTIPSGSTLAFRVAQLVIDSDLDVLLFPDKKQRTFQPPATGHKRSTSEGAWPQLPSGLSMMRCLHNFLTDGVPAEGAFTEDFQGLRAEVETISKELELLDRELCQLLLEGLEGVLRDQLALRALEEALEQGQSLGPVEPLDGPAGAVLECLVLSSGMLVPELAIPVVYLLGALTMLSETQHKLLAEALESQTLLGPLELVGSLLEQSAPWQERSTMSLPPGLLGNSWGEGAPAWVLLDECGLELGEDTPHVCWEPQAQGRMCALYASLALLSGLSQEPH
B2: GSDMD (gasdermin-D): TMG (protein)
parent chain: MGSAFERVVRRVVQELDHGGEFIPVTSLQSSTGFQPYCLVVRKPSSSWFWKPRYKCVNLSIKDILEPDAAEPDVQRGRSFHFYDAMDGQIQGSVELAAPGQAKIAGGAAVSDSSSTSMNVYSLSVDPNTWQTLLHERHLRQPEHKVLQQLRSRGDNVYVVTEVLQTQKEVEVTRTHKREGSGRFSLPGATCLQGEGQGHLSQKKTVTIPSGSTLAFRVAQLVIDSDLDVLLFPDKKQRTFQPPATGHKRSTSEGAWPQLPSGLSMMRCLHNFLTDGVPAEGAFTEDFQGLRAEVETISKELELLDRELCQLLLEGLEGVLRDQLALRALEEALEQGQSLGPVEPLDGPAGAVLECLVLSSGMLVPELAIPVVYLLGALTMLSETQHKLLAEALESQTLLGPLELVGSLLEQSAPWQERSTMSLPPGLLGNSWGEGAPAWVLLDECGLELGEDTPHVCWEPQAQGRMCALYASLALLSGLSQEPH

What was measured:
[1] = western blot of GSDMD-N, HEK293T input; conditions: control: GSDMD-WT
[2] = western blot of GSDMD-N, HUVECs; conditions: glycan gained; control: HUVECs, LPS without TMG

Protein	other: proteolytic processing ([1]; glycan lost, LPS + TMG)	other: proteolytic processing [2]	other: proteolytic processing ([1]; glycan gained, LPS without TMG)
B1	increases		
B2		decreases	decreases
